Publication PMC11381232, “Efficient expression and purification of rat CRP in Pichia pastoris” (Frontiers in Immunology, 2024)

B1: rat C-reactive protein purified from rat serum (natural protein, UniProt P48199 20-230, looked up)
chain: HEDMSKQAFVFPGVSATAYVSLEAESKKPLEAFTVCLYAHADVSRSFSIFSYATKTSFNEILLFWTRGQGFSIAVGGPEILFSASEIPEVPTHICATWESATGIVELWLDGKPRVRKSLQKGYIVGTNASIILGQEQDSYGGGFDANQSLVGDIGDVNMWDFVLSPEQINAVYVGRVFSPNVLNWRALKYETHGDVFIKPQLWPLTDCCES
notes: C-reactive protein, rat, endogenous protein from serum; Homopentamer by negative-stain EM and SEC; also called rCRP; rat CRP; source: purified from serum of turpentine-injected Wistar rats (p-Aminophenyl Phosphoryl Choline Agarose, DEAE, SEC)
B2: recombinant rat CRP with N-terminal Strep-tag II, secreted from E. coli BL21 (DE3) (natural protein, UniProt P48199 20-230, looked up)
chain: B1 chain
notes: C-reactive protein, rat, wild type, cDNA by NM_017096.3; so no native signal peptide; A bacterial signal peptide stood before the tag for secretion (text: alkaline phosphatase, ALP); also called rCRP; rCRPwt-pET42c
B3: recombinant rat CRP with C-terminal 6×His tag, secreted from Pichia pastoris GS115 (natural protein, UniProt P48199 20-230, looked up)
chain: B1 chain
notes: C-reactive protein, rat, wild type; the reverse primer ends at ...DCCES followed by GA and six histidines; Secreted by the S. cerevisiae alpha-factor signal of pPIC9K; By the reverse primer a Gly-Ala stands between CRP and the His6 tag; also called rCRP; rCRP-6×His fusion protein; source: P. pastoris GS115, secreted into the culture medium, purified (Ni2+-NTA, p-Aminophenyl Phosphoryl Choline …)

Legend:
[1] = biological target: the molecule itself; test: negative-stain electron microscopy; CRP diluted to 0.15-0.3 mg/mL in 20 mM Tris pH 6.8, 150 mM NaCl, 2 mM CaCl2, 1-2 h at 18°C, 1% uranyl acetate; self-association, pentamer
[2] = biological target: the molecule itself; test: SDS-PAGE and Western blot, non-reduced against reduced; yeast-secreted rCRP-6×His without or with 20 mM DTT, anti-His detection; disulfide-linked dimer of subunits

| Protein | stoichiometry N [1] | stoichiometry N [2] |
| --- | --- | --- |
| B1 | 5 |  |
| B2 | 5 |  |
| B3 | 5 | 2 |
